Experiment in all cases: BLI
Experiment [1] addresses FcγRIIIa_(V176) (UniProt P08637).
The target in experiment [2] is FcγRIIa_(H167) (UniProt P12318).
The target in experiment [3] is FcγRIIb/c (UniProt P31994).
Experiment [4] concerns the target FcγRIIIa_(F176) (UniProt P08637).
Experiment [5] addresses FcγRIa (UniProt P12314).

From article doi:10.1101/2023.03.26.534243 come the findings set out here.

Sequence of UniProt P12314 (P12314 16-292): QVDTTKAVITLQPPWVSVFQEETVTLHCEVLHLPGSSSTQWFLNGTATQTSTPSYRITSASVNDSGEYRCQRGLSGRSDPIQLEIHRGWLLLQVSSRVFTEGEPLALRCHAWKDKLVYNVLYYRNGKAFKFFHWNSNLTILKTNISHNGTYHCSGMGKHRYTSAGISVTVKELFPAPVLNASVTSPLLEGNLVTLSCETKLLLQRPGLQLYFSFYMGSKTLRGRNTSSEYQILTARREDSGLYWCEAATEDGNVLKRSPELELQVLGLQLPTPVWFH
Sequence of UniProt P12318 (P12318 34-217): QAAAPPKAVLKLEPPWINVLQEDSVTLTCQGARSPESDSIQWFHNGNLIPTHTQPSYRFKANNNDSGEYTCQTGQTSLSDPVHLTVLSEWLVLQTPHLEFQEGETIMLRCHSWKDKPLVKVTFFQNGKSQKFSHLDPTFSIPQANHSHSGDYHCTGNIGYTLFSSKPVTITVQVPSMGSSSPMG
Sequence of UniProt P31994 (P31994 43-217): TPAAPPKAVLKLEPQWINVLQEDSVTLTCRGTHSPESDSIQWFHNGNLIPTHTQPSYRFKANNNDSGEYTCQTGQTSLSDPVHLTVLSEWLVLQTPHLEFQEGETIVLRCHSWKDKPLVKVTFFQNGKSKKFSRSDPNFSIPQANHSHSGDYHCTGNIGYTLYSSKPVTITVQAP

Usually Kd stands for the free concentration of one partner at which half of the binding sites on the other are occupied at equilibrium, for simple one-to-one binding. Higher therefore signals lower affinity. Usually koff stands for the first-order rate constant of dissociation. Lower therefore signals a long-lived complex. Usually kon stands for the rate constant with which the complex forms. Turning to Pertuzumab IgG3 VH3 (antibody), in experiment [1], the Kd is 181 nM, the koff turned out to be 0.0178 s⁻¹ and the kon came to 13500 M⁻¹ s⁻¹. The same substance showed a Kd in experiment [2] of 5.75 nM.

On to Pertuzumab IgG2 VH1 (antibody), for which, in experiment [3], the on-rate (kon) turned out to be 176000 M⁻¹ s⁻¹.

In experiment [4], Pertuzumab IgG3 VH1 (antibody) came in with a Kd of 92.9 nM, a koff of 0.0328 s⁻¹ and a kon of 160000 M⁻¹ s⁻¹. Besides, in experiment [5], the koff came out at 0.000553 s⁻¹ and the on-rate (kon) was 208000 M⁻¹ s⁻¹. In experiment [5], Pertuzumab IgG4 VH2 (antibody) yielded a Kd of 75.7 nM. Turning to Pertuzumab IgG4 VH3 (antibody), the Kd in experiment [5] came out at 127 nM. Substance Pertuzumab IgG3 VH5 (antibody) registered a koff in experiment [2] of 0.00279 s⁻¹. The Kd in experiment [3] is 24.8 nM.

In experiment [5], Pertuzumab IgG4 VH1 (antibody) gave a Kd of 3.62 nM. This counts as single-digit nanomolar. Same read-out and setting: the result for Pertuzumab IgG4 VH6 (antibody) reads 7.15 nM. The same measure, in the same setting: the result for Pertuzumab IgG4 VH5 (antibody) reads 151 nM. Pertuzumab IgG2 VH4 (antibody): the kon in experiment [2] was 360000 M⁻¹ s⁻¹. Moreover, in experiment [3], the off-rate constant (koff) is 0.00934 s⁻¹.

Take Pertuzumab IgG4 VH7 (antibody): in experiment [5], the Kd amounted to 20.7 nM. Same read-out and setting: under Pertuzumab IgG4 VH4 (antibody) stands 191 nM. In turn, Pertuzumab IgG2 VH3 (antibody) came in with a kon in experiment [3] of 308000 M⁻¹ s⁻¹. In turn, Pertuzumab IgG3 VH4 (antibody) yielded a Kd in experiment [1] of 88.7 nM. The substance also returned a kon in experiment [3] of 72900 M⁻¹ s⁻¹.
